Target: T1, Strep-CD9P1-ECD (recombinant soluble human CD9P-1 extracellular domain with Strep tag) (human, UniProt Q9P2B2 22-832)
T1 construct: The limits 22-832 are stated for the recombinant extracellular domain made in CHO cells and used as immunogen; also called recombinant CD9P-1 extracellular domain; not shown: Strep tag; Residue numbers of the construct are 8 higher than those of CD9P-1
T1 sequence: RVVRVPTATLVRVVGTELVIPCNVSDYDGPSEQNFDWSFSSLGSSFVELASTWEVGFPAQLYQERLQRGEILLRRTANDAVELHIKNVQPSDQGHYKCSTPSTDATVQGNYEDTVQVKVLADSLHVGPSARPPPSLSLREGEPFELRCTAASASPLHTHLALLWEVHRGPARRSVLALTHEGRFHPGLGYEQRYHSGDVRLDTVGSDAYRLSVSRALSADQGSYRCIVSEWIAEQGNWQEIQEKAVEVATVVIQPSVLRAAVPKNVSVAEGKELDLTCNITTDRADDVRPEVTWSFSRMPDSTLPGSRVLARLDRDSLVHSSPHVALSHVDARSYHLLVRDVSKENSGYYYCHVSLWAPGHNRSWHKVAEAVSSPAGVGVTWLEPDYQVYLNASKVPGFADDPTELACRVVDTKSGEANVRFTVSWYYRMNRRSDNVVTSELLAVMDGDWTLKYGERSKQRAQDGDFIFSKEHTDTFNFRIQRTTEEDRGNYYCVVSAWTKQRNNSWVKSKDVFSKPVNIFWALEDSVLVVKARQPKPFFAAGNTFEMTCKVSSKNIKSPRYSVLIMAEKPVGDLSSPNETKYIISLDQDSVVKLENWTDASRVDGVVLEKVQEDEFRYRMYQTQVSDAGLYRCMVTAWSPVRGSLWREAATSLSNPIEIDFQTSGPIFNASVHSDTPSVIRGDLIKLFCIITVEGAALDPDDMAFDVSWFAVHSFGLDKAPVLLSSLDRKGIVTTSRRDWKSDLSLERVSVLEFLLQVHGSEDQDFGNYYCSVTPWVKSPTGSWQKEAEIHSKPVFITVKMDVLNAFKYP
Experiment: SPR; Strep-CD9P1-ECD coated on sensor chip, antibody flowed over
Text: Recombinant Strep-CD9P1-ECD was coated on sensor chip and several concentrations of the antibodies were flowed over the chip to obtain binding and dissociation kinetics.

Row | Binder | Kd | koff | kon
1 | 9bF4 mAb (mouse anti-human CD9P-1 monoclonal antibody, hybridoma CNCM I-5213) (antibody, V domains shown, Mouse IgG from a hybridoma, purified on protein G; also called Mouse IgG 9bF4; IgG 9bF4) VH: QVQLQQSGAELVKPGTSVKLSCKTSGYTFTSYWIQWIKQRPGQGLGWIGEIFPGTGTTSYHEKFKGKATLTIDTSSSTAYLQLSNLTSEDSAVYFCSRDFDVWGAGTTVTVSS VL: not shown | 90.9 nM | 0.00491 s⁻¹ | 54100 M⁻¹ s⁻¹
2 | 10bB1 mAb (mouse anti-human CD9P-1 monoclonal antibody, hybridoma CNCM I-5214) (antibody, V domains shown, Mouse IgG from a hybridoma; also called IgG 10bB1; 10bB11) VH: QVQLQQSGAELVKPGTSVKLSCKTSGYTFTSYWIQWIKQRPGQGLGWIGEIFPGTGTTSYHEKFKGKATLTIDTSSSTAYLQLSNLTSEDSAVYFCSRDFDVWGAGTTVTVSS VL: not shown | 899 nM | 0.0118 s⁻¹ | 13200 M⁻¹ s⁻¹

Reference: patent publication US20200172618A1 (GENE SIGNAL INTERNATIONAL, published 2020)
